# Columns and labels:
# [1] = target: cyclin D1 (human), P24385; test: competition; conditions: modification not given
# cyclin A (human), P20248 = test: competition; conditions: modification not given
# Sequence of cyclin A (human), P20248 (P20248 whole entry): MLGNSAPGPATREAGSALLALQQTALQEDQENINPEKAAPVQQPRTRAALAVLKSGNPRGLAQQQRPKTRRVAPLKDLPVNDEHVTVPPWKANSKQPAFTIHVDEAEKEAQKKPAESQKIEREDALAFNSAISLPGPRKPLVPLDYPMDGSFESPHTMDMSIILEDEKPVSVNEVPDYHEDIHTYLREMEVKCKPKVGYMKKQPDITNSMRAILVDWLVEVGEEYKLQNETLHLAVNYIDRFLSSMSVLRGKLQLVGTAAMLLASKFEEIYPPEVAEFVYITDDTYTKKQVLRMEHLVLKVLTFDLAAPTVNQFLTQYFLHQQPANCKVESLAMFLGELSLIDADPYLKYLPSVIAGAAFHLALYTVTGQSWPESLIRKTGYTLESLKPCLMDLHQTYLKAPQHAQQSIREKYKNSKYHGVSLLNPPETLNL
# Sequence of cyclin D1 (human), P24385 (P24385 whole entry): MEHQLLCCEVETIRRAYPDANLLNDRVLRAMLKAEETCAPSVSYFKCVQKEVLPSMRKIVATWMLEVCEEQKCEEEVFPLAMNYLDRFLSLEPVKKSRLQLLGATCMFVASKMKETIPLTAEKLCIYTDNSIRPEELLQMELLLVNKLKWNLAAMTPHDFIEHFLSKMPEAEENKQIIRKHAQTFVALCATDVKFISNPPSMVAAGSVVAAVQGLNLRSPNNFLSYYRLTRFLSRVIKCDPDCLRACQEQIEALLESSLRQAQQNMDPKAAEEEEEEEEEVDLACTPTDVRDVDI
Binder,IC50 [1],"IC50 (cyclin A (human), P20248)"
RRLNF [Ac-RRLNF-NH2],–,8.15 µM
PVKRRLDL [E2F1 PVKRRLDL],> 100 µM,–

# The next lines start with the values.
IC50 [1],"IC50 (cyclin A (human), P20248)",Binder
> 200 µM,–,HSKRRLFG
> 200 µM,–,HSKRRLDL
